From PMC11046300 (The Journal of Biological Chemistry, 2024)
Where a chain is given by its changes, count along the chain named.

B1: SUMO-His-tagged TEAD4 YBD domain (217-434) (domain or fragment, human, UniProt Q15561 217-434, looked up)
chain: RSVASSKLWMLEFSAFLEQQQDPDTYNKHLFVHIGQSSPSYSDPYLEAVDIRQIYDKFPEKKGGLKDLFERGPSNAFFLVKFWADLNTNIEDEGSSFYGVSSQYESPENMIITCSTKVCSFGKQVVEKVETEYARYENGHYSYRIHRSPLCEYMINFIHKLKHLPEKYMMNSVLENFTILQVVTNRDTQETLLCIAYVFEVSASEHGAQHHIYRLVKE
B2: His-TEAD4-YBD (domain or fragment, human, UniProt Q15561 217-434, looked up)
chain: B1 chain
B3: GST-NF2-507-595 (domain or fragment, human, UniProt P35240 507-595, looked up)
chain: FDFKDTDMKRLSMEIEKEKVEYMEKSKHLQEQLNELKTEIEALKLKERETALDILHNENSDRGGSSKHNTIKKLTLQSAKSRVAFFEEL

Legend:
Assay in all cases: pull-down
[1] = molecular target: T1, GST-tagged full-length NF2 (human, UniProt P35240 1-595)
T1 sequence (looked up): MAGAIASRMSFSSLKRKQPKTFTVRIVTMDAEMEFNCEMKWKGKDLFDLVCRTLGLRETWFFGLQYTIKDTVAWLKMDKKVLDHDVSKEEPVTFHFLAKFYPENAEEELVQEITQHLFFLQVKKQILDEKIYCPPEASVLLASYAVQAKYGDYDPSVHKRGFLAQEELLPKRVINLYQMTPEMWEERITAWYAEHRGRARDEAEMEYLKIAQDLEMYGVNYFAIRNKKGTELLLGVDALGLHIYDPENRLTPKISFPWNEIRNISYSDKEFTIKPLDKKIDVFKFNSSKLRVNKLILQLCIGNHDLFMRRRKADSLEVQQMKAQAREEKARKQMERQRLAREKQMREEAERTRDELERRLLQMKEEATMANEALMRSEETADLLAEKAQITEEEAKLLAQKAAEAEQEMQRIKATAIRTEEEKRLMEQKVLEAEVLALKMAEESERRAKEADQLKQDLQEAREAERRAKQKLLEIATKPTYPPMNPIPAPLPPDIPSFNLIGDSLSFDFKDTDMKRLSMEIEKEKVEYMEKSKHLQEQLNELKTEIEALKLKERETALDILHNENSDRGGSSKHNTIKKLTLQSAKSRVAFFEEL

[2] = molecular target: T2, GST-NF2 FERM domain (1-341 aa) (human, UniProt P35240 1-341)
T2 sequence (looked up): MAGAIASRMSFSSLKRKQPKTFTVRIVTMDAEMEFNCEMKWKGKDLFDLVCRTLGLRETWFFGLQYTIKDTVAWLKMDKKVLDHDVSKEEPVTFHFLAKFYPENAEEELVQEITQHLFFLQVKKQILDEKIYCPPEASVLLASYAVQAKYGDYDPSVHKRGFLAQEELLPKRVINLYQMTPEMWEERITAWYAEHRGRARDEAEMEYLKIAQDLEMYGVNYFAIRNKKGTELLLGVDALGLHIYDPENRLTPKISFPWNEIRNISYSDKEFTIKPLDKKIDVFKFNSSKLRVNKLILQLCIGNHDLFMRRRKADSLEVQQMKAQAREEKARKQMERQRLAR

[3] = molecular target: T3, GST-NF2 C-terminal half (342-595 aa) (human, UniProt P35240 342-595)
T3 sequence (looked up): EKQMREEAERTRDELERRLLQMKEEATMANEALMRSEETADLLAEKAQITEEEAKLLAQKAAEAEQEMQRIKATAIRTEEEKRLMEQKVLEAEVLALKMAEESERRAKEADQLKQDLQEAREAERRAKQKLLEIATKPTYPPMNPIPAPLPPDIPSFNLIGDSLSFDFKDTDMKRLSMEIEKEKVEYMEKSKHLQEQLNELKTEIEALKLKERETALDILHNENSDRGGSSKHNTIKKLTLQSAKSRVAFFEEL

MBP-NF2 (18-595) = molecular target: T4, MBP-NF2 (18-595) (human, UniProt P35240 18-595)
T4 sequence (looked up): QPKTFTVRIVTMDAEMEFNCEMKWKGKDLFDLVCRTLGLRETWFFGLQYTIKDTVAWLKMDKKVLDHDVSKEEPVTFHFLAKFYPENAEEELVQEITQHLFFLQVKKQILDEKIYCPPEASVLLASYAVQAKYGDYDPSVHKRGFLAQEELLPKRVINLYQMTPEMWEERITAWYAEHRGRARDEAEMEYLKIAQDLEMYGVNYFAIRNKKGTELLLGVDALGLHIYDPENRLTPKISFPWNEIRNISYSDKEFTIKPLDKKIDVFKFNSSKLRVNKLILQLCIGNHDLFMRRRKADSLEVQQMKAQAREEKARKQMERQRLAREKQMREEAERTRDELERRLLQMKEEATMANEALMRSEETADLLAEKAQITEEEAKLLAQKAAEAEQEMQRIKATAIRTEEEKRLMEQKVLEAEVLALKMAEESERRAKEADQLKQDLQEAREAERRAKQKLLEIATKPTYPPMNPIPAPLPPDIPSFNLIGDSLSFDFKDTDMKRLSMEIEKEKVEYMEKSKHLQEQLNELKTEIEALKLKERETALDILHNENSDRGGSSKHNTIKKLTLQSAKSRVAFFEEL

MBP-NF2 A585W = molecular target: T5, MBP-NF2 A585W (human, UniProt P35240 18-595, A585W)
T5 sequence (looked up): T4 sequence (looked up) with A568W

His-TEAD4-YBD = molecular target: B2

## B1
[1]
  binding result: binds
[2]
  binding result: binds
[3]
  binding result: binds

## B2
MBP-NF2 (18-595)
  binding result: binds
MBP-NF2 A585W
  binding result: binds
[2]
  binding result: binds

## B3
His-TEAD4-YBD
  binding result: binds
